The assay has as its target 原核表达的重组人P53蛋白 (recombinant human P53 expressed in E. coli BL21 from PET28a-P53, Ni-NTA purified) (human) (UniProt P04637). Kind of assay: direct ELISA, purified antibody diluted 1:200 to 1:12800 on plates coated with purified P53 (10 μg/ml), goat anti-mouse IgG-HRP, OD450.

Some results are limits rather than exact numbers.

Chain of UniProt P04637 (P04637 whole entry): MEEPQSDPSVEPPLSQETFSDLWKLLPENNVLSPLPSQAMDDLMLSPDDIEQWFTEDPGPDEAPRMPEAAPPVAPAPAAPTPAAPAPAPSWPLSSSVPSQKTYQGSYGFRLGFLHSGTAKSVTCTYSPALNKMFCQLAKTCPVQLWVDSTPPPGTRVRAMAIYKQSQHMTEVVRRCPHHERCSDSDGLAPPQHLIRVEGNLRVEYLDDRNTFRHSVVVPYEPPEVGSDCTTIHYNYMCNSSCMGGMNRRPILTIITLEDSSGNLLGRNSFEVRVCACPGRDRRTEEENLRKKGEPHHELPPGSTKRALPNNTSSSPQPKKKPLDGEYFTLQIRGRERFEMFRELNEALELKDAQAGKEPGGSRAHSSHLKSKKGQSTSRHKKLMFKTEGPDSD

B1: 小鼠抗人P53单克隆抗体6C4 (mouse anti-human P53 monoclonal antibody from hybridoma 6C4, CGMCC No. 6916) (antibody, part only; not given: light chain variable region, V domains shown, part only)
VH: DFCWSLSGVGVGCHLVTNSGKGLEWLAHIWWDDDKSYNPALKSRLTISKDTSTNQVFLKIASVDTADTATYYCARMTTATFAYWGQGTLVTVSPASTTPPISQ
Turning to B1, the ELISA titer (滴度) (dilution factor (1:x)) was above 10000.

These data come from CN106754739A.
